Measurements from patent US12521446B2, “Anti-CEACAM5 antibody drug conjugates” (Bristol-Myers Squibb Company, priority 2024, dated 2026).

T1: full-length human CEACAM5 (Homo sapiens, UniProt P06731, T210S)
T1 construct: The SPR kinetics against full-length human and cyno CEACAM5 were set up as follows
T1 sequence (P06731 35-702 T210S): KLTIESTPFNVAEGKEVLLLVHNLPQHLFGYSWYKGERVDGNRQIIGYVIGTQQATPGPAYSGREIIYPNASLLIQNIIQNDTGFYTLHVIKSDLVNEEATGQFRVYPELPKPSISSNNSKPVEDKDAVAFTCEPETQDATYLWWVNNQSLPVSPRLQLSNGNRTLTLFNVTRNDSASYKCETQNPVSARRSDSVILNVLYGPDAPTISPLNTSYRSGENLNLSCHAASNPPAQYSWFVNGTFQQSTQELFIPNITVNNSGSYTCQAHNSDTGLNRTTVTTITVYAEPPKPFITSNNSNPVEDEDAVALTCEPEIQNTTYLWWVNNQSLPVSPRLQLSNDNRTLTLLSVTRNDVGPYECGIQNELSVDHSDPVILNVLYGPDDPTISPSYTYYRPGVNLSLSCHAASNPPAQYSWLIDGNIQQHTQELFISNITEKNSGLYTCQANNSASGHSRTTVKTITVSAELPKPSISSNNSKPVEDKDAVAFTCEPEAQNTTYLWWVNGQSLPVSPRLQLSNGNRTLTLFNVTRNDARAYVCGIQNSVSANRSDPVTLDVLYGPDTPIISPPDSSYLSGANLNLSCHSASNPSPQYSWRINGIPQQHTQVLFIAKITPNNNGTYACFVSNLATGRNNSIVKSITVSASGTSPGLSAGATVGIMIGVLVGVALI

T2: HCT116-huCEACAM5 (Homo sapiens, UniProt P06731, T210S)
T2 construct: expressed in transfected cells; host or cells: HCT-116
T2 sequence (P06731 35-676 T210S): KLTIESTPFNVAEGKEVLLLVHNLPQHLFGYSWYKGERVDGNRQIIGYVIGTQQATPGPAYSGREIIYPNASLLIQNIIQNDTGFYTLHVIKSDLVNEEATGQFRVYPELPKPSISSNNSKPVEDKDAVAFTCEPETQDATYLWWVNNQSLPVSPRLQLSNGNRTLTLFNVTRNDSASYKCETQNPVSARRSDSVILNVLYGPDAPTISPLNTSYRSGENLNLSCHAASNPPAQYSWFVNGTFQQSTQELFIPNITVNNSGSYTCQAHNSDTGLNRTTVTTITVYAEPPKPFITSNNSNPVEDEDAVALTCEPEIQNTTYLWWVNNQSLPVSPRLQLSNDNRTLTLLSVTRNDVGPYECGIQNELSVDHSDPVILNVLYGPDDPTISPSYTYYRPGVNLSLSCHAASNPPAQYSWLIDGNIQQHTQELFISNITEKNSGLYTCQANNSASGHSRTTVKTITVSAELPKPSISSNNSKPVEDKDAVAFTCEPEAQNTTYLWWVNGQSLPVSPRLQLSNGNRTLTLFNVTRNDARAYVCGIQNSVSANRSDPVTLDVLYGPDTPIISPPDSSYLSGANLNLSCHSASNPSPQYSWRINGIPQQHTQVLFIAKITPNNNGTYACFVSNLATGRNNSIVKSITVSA


Tests used:
HCT116-cyCEACAM5 = assay: Internalization of progeny antibodies (Incucyte, pHrodo red), Example 9; format: cell-based, cynomolgus; conditions: hIgG1.3 progeny, 25 nM mAb, Table 13A
Chain of HCT116-cyCEACAM5 (as listed by the source): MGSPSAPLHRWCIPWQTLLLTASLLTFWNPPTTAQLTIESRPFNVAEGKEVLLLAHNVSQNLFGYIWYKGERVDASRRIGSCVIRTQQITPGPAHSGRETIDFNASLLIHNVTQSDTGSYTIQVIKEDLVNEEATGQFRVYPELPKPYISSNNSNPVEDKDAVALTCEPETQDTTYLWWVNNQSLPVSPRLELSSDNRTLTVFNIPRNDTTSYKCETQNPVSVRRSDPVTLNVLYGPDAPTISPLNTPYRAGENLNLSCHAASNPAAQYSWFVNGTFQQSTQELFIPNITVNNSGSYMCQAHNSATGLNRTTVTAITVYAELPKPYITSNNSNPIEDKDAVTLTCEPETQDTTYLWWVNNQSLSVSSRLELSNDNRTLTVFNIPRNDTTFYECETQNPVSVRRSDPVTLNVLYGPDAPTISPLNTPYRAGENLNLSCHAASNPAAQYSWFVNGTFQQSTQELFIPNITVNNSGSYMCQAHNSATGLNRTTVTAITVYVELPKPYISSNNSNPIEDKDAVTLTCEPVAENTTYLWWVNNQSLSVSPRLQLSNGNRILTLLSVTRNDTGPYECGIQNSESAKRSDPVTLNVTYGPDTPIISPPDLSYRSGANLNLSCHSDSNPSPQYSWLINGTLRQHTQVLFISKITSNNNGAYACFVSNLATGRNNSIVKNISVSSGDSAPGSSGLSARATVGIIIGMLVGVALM
Procedure: (§1) Antibodies were evaluated for internalization using HCT-116-huCEACAM5, HCT-116-cyCEACAM5, and MKN45 cell lines.
(§2) Cell lines were first analyzed for cell density and viability using a Vi-cell viability machine. The cell lines were diluted to 0.2E6 vc/mL in growth media, and a volume (50 uL) of each was dispensed to a flat-bottom 96-well plate to achieve cell counts of 10K cells/well. Ls174T media included MEM with 10% HI-FBS and 1% pen/strep. MKN45 media included RPMI (ATCC modification) with 10% HI-FBS and 1% pen/strep. HCT-116 media included McCoy's 5a with 10% HI-FBS, 1% pen/strep, and 6 μg/mL Blasticidin. Cells were allowed to adhere to wells of the 96-well plate (Corning Cat. No. 3595) at 37° C./5% CO2 for approximately 4 hours.
(§3) Each test mAb and control mAb was labeled by first pre-mixing the respective antibody with a pHrodo red (Fab conjugated to pH-sensitive; Thermo cat #Z25612) secondary reagent at a 3:1 dye:mAb molar ratio. A series of dilutions were prepared at 2× target concentration in growth media. The final mAb target concentration was 25 nM. […]
Coated plates contacted with the labeled mAbs were incubated at 37° C. for 30 minutes. Each plate was then read using an Incucyte apparatus, which collected images from the red and phase channels [10× objective; 3 images/well] for a 24-hour duration, with reads of plates every 30 minutes. […]

[1] = target: T1, full-length human CEACAM5; assay: SPR kinetics of progeny antibodies (BIACORE), Example 8; format: binding; conditions: hIgG1.3f progeny antibodies, Table 12A
Source text: (§4) Antibody genes with single amino acid substitutions and combinations of substitutions were synthesized in IgG expression vectors, transiently transfected into HEK cells, and purified via Protein A. In addition, the framework germline reversions described above were also incorporated into the sequences of the progeny. Purified IgG1.3 CEACAM5 mAb clones were characterized using the BIACORE® for high-throughput SPR-based monoclonal characterization.
(§5) The BIACORE® instrument was primed with 1×HBSP+ running buffer (Cytiva catalog no.BR100671). The CM5 chip (Cytiva catalog no. 29149604) was equilibrated to room temperature, and the BIACORE® instrument was re-primed. A human antibody Fc capture kit (Cytiva catalog no. 29234600) was utilized for this analysis. The human antibody Fc capture reagent was immobilized to both flow cells in all 8 flow channels of the CM5 chip via amine-coupling using the following conditions. Immobilization was performed at a temperature of 25° C. The anti-human Fc capture reagent was diluted to a concentration of 25 μg/mL in acetate pH5 buffer. The chip surface was activated by injecting a mixture of 1-ethyl-3-(-3-dimethylaminopropyl) carbodiimide hydrochloride (EDC) and N-hydroxy succinimide (NHS) for 420 seconds at a rate of 10 microliters per minute (uL/min). A concentration (25 ug/mL) of anti-human Fc capture reagent was then injected on the surface for 420 seconds at a rate of 10 uL/min. The remaining chip surface was blocked by injecting ethanolamine for 420 seconds at a rate of 10 uL/min.
(§6) The SPR kinetics against full-length human and cyno CEACAM5 were set up as follows. The antibody capture was performed by diluting the antibodies to a concentration of 10 nM in HBSP+ buffer. The 10 nM mAbs were captured for 20 seconds at 5 uL/min to achieve capture levels of approximately 100RU. Analyte binding was performed by first making a titration series of full-length human and cyno CEACAM5 that were prepared (from 500 nM-0.23 nM) with three-fold dilutions in HBSP+ buffer. The association rate was 180 seconds at 30 uL/min. The dissociation rate was 600 seconds at 30 uL/min. Regeneration was performed using two injections of 3M magnesium chloride MgCl2 for 30 seconds at 30 uL/min. A data fit was performed using a 1:1 binding model with global Rmax. Rmax reflects the maximal response when all ligand is occupied.

HCT116-huCEACAM5 = target: T2, HCT116-huCEACAM5; assay: Internalization of progeny antibodies (Incucyte, pHrodo red), Example 9; format: cell-based; conditions: hIgG1.3 progeny, 25 nM mAb, Table 13A
Procedure: as §1, §2, §3
(§7) Coated plates contacted with the labeled mAbs were incubated at 37° C. for 30 minutes. Each plate was then read using an Incucyte apparatus, which collected images from the red and phase channels [10× objective; 3 images/well] for a 24-hour duration, with reads of plates every 30 minutes.

full-length cyno CEACAM5 = assay: SPR kinetics of progeny antibodies (BIACORE), Example 8; format: binding, cynomolgus; conditions: hIgG1.3f progeny antibodies, Table 12A; for Kd: read-out: cyCEACAM5 KD
Chain of full-length cyno CEACAM5 (as listed by the source): as above
Source text: as §4, §5, §6

MKN45 = assay: Internalization of progeny antibodies (Incucyte, pHrodo red), Example 9; format: cell-based; conditions: hIgG1.3 progeny, 25 nM mAb, Table 13A
Procedure: as §1
The MKN45 or Ls174T cells were seeded at 10K cells/well (50 uL).
as §2
Each test mAb and control mAb was labeled by first pre-mixing the respective antibody with a pHrodo red (Fab conjugated to pH-sensitive; Thermo cat #Z25612) secondary reagent at a 3:1 dye:mAb molar ratio. A series of dilutions were prepared at 2× target concentration in growth media. […]
as §7

Molecule | HCT116-cyCEACAM5 red/phase AUC (internalization) (HCT116-cyCEACAM5) | huCEACAM5 ka [1] [M⁻¹ s⁻¹] | huCEACAM5 kd [1] [s⁻¹] | HCT116-huCEACAM5 red/phase AUC (internalization) (HCT116-huCEACAM5) | cyCEACAM5 ka (full-length cyno CEACAM5) [M⁻¹ s⁻¹] | cyCEACAM5 kd (full-length cyno CEACAM5) [s⁻¹] | Kd (full-length cyno CEACAM5) [nM] | MKN45 24 hr red/phase AUC (internalization) (MKN45)
MBP007: hIgG1.3f progeny of MBN001; VH SEQ ID NO: 73, VL SEQ ID NO: 74 (antibody, V domains shown) VH: QVQLVESGGGVVQPGRSLRLSCAASGIYFSSHGMHWVRQAPGKGLEWVTFISYDGSYKSYVDSVKGRFTISRDNSKNTLYLQMNSLRAEDTAVYYCATGLTGTGANDIWGQGTMVTVSS VL: EIVLTQSPGTLSLSPGERATLSCRASQSVSSSYLAWYQQKPGQAPRLLIYGASSRATGIPDRFSGSGSGTDFTLTISRLEPEDFAVYYCQQNKPSPYTFGQGTKLEIK | 1.80 | 79600 | 0.00171 | 1.05 | 42700 | 0.000924 | 21.7 | 3.28
MBP010: hIgG1.3f progeny of MBN001; VH SEQ ID NO: 79, VL SEQ ID NO: 80 (antibody, V domains shown) VH: QVQLVESGGGVVQPGRSLRLSCAASGITFSSHGMHWVRQAPGKGLEWVTFISYDSSYKSYVDSVKGRFTISRDNSKNTLYLQMNSLRAEDTAVYYCATGLTGTGAFDIWGQGTMVTVSS VL: EIVLTQSPGTLSLSPGERATLSCRASQSVSSSYLAWYQQKPGQAPRLLIYGASSRATGIPDRFSGSGSGTDFTLTISRLEPEDFAVYYCQQNKRSPYTFGQGTKLEIK | 2.55 | 50000 | 0.00102 | 1.00 | 34000 | 0.000706 | 20.8 | 3.11
